From the NTF2 design screens of Basanta et al. (2020) come the findings set out here.

A short description of this data set: protease stability score; higher = more stable; yeast display proteolysis, trypsin and chymotrypsin.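 Also: log10 excess protease needed over predicted unfolded state with 0 meaning unfolded.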
The sequence “DENVVKRVHDALQTNDWQQLADLFDKDARVHVGEFQLHGHEEVQKFVDLQRKQIDHMEVRSIEIDGERAEAEFVIRVDGRKREAEITIRANNGKAKEMKIQFTDKDFERKMREKME” returned a protease stability score of 0.836.
The result for “DEHHRKEFEDMLRVEQHGNEEQLKRYMDPNARFRYGDKKVHGREEVVRQISKRRHKLRMQYDTWDIKVKGDKITADLKYVEHQNGQPEDVRVNVSIRFHNGKLVEAHRERDK” reads -0.001; that for “DDQKKKELMQKMVEAYLSGHHEEVEKLGKDDGKVEAGDRKYEGSEQARKAAKQFKTYGVELRITDMQQDGDRLDVKAEAHMGGVTWEFTATVTADGGKVDKIQIDASDDAKKAIKDG”, 0.725.
Consider “DEHKAHRRAQELVEVMKQGDFKRWQEMADPNADVHYGDKRVHGMNEAADVMRQIRNDADHIRVKTYEAKGERIHIDFRVSFNGKQITFDLVVEIRNGTIKTAQFDPDAIRHLES”, for which the protease stability score is 0.5.
Consider “DTRSVMKDILKKIQENLKTGDPQHAADLFDPNVSVRVGDKELRGREQVRKKMKEERDRVDHVDMRIHDMKVSNGRVVVHYTWTVTVNGRKETNRAQLHADNEGDKALVTEVNVK”, for which the protease stability score is -0.106.
As for “DDEDDKRLADEFNTAVKQGDEDQLKNLMDEDATAEIGDKQLTGRENAAKHLVTLARHADHIQVNSVRVHDGRIRIDMRMIFNGQDHHYDIKIEVHNGRIKRMTVRNK”, the protease stability score came to 1.6.
The result for “DEEVAKKMMETWQKVVQKGNDKDARELYKPNGEWVDGDEKHQGVDYVVKALQRVKKYGAEFQVRKAKVEGDTATMVYDLRIGDKTVTFVVQMQADGGRVERVQVKMNEEAKKAVTHG” reads 0.786; that for “DEDEQKVAKTFVEAVRQGDEKQIDDLADPNVRLRVGDKTLHGRDQLREHVRQMKEELKVEWSVQHVDFSDGRARIHAEMRVDVNGKPVTDDVTFFIEVKNGKVKNVEIHMDESVKREAEQ”, 0.548.
“DEKDVRRLSKYLRALQKNDPDEVRRMADPNAKAEVGDKRIHGRDEFSKHVETRRRQMRITIEHYEIKNQGDKVELNVVRRSEHNGKPRRNSVRATYVFDNGKIHSYSVKHVP” displayed a protease stability score of -0.133.
On to “DDENQQHFAEKMATAVIKNDPDEIVRLADPNVQVQVGEKEVHGREEVHELMEELKDQADHVHLVSVHVSNGQVNIVVDVVVNGKRLRVTITVKFNNGKVRYIRVDPEFQRKMDK”, for which the protease stability score is -0.095.
The sequence “EEDNRKHAEDIWRAIRKGDEERLKQLFDKDVKFHVGEKEIHGRENYARSVKERREEIKWSVTLDDVHVRGEKIVIRYTFTENNNGRPRHNVQVLEMTVTNGRVVNVDAKDDK” yielded a protease stability score of -0.148.
The result for “DEEEAQDVLQEVFKAVSRGDEDRAEQLADPNAKAEYGDKSYHGKKVIKEAVRRMSEQADHFEFKHIDHDEGRVVFDMEIEFNGQTFKVKVKAQAHNGRAQNFKFQFRSEDDLERLQS” reads -0.23; that for “DDKEAHKRARQLVRIVQTGNESDVRKLFDKNARVVIGDKTFHGRENVQKAVREMRERVDHVQVHRVRAQGNKVRALVQYDINGKQEHYNFDMTFHNGRAKSMVVKES”, 0.812.
As to “EEEKMKKIIKRMFDAVQKGNTEELRKYGKEDVKFEFIDDRNEGPQQYAERMKKMMKHGVQLEIKEVQLKDNTATMYTVVEYGNRRVTAKAEFEYDGGKLKEARVKISEEAKKVIKTG”, the protease stability score worked out at 0.119.
In the case of “EEEANKHLRQWWRNFRKGSEEKMKNLMDPNVRVVVGDKVYSGREQVMKMVRDQLTHARFDFDLERLSAHNGKIDITMKLVADINGKPVKVHVKADVQYSNGRIESIVLHVDPDQQRKLTE”, the protease stability score was 2.19.
Sequence “DKEEVQRIVEEMLKFVESGDIKKLVDHGKEGVRYRLGDEEAHGPEAIKKMVVKMKKVGLRIEVKEYQVEGDTATTKLKYQLGDTEDTVEVNAQAQGGRIDQVNADVDKTAVDMIKQG” had a protease stability score of 0.048.
The sequence “DEDLQEFAERLLQVNRTGDEDQFRRNVDPNAKMVVGDKEYHGRDELARFFRHLREHARFELNVKSVSVEGDTVEIHFEARVDINGKPLTYEASMSMRVEGDRVKRITFRMDPDQRRKAHS” gave a protease stability score of 1.11.
“DENDAKELRHFIEVMVRGDPSKLMQLADKDASFHIGEKQVHGREQISSEAEQRNREIKYEIKDLKVTVHGDKARVEAEMVKNHNGKPEHYRYVVTASLRNGKIKEVTVNKRQ” registered a protease stability score of 0.875.
Consider “DEHADTIVKKYLDAIKSNNPEDVKENVDKDVDVEVGDTSWHGRDEVVTRVQNELDEIRIDMKVDEVNNQGNHVEVKMHMTLDINGKPATVDWDVKFDIQNGRIQSIRLRPDEENRKQKEK”, for which the protease stability score stood at 0.057.
“DEELYKLMEQVIKAWEENDETQLKRLADPNVKVSIGDKRVHGRDQMAEDAKRRKKQLRFNIDIKSYSVHNGRVNARATVHNDVNGQPREDTVNIQMEWSNGQLTNFNMRMDEDFLRKIRS” gave a protease stability score of 0.752.
The sequence “DEEANKVAKKLWEAIDHGNKEQAKELADPNAKAHVGDKSIHGMDTFVTWIKEIFDTMSFEVRIEDMKVHNGRLSANVRATFDINGQPRHQQARFKMDIHNGKISKVVIEMPKEKWKTILR” returned a protease stability score of 0.97.
Sequence “DEEASKKIKTLVQILNTGDPDKAVKLFDPNARFQVGDKEISGREQFKEVLKKLKHKMRNDIKVKHVEVNNGHANAHAVMTVQVNGQPDHFTFIMRIQWHNGVIEHREVQMDEDELRRYNS” came in with a protease stability score of 0.339.
For the sequence “DDDEVRKIREFMHVMSRGDSNRAMEMADPNAHFKVGDKTINGRESFKSWLRKQREEIHVQIDDVTNTSEPGHVEVNADVTFEHNGQPDRVTLIMIARLKNGRITFLEIRRKK”, the protease stability score was 1.33.
The result for “DKEELQHLIRLEEHNDWDKFARQAPPNATLQVGDRVVHGREEAVKFAEKLKKRVDHISIESIDRRGEKLQIVYTMVVDGKRVKAVVVLRASNGRAQSVVFQARDPHDQQVIKENLS” reads 0.178.
For the sequence “DEDRRAKELAERLDEALRTGDEERLQRLFDKDVRFDIGDKTIHGRTEAARQMVTHANRADHVHMKVTDLKRHGSRIVVVVHFRQNINGKKDSRDVKIEVKLEGDRIKVVRATYR”, the protease stability score amounted to 0.888.
For the sequence “DERQVKEIALEAAKAYISGNKEKLKKLGKEDVELEAGSHKYKGVEQMATVVEQFKKYGVELQITDVKVDGDKVKMRIQVHAGGTTWEFTMEIQVDGGRVDKMTIHLSEEMVKRIQKG”, the protease stability score was 1.02.
The sequence “DEDKLRDVAKRLQEIIHTNNPDDLNKQADKDARVQVGDKEYKGRRDVYKFMETLKHQVDQIEIHDVKFDGDHAHFHVMMNVNGKKVEVHIIMEVENGKVKELNFDPKNMEQLDK” had a protease stability score of 0.708.
Sequence “DEEKVAKRFLDNWVRALHHNNEKQFKKMLPPDARVEIGDKTYNGREQVVTFFAEWAKQFDHISLDLKDMRVHNGTMDIDVKVVANDNGKNEHMRVVYVIEIKGDEATFRSATHK” returned a protease stability score of 1.87.
Turning to “DDKNRELLTEVLKARETGDPDRIHELLDPNVKVKVGNKTLRGRNEIAKWWKRQTDEMRIEESITHIDVHNGKARMEASARVEINGRPVTYTFIMKAVIHNGRVKEINIHIPEEKMQEVTQ”, the protease stability score was found to be 0.948.
Sequence “DDDAVRKLRELIKAVKDGDPSRAKELMDPNAEIVVGDHYIRGMDNFDKEIDRQKKEARVEYRLKRVRHDENHIKVDAEVIFNVNGRPVTFKLKMRVKLHNGKMIEVEQQVDESSIERVKS” displayed a protease stability score of 1.01.
“DERQVERIDRHLKALEHGDEKTLVEMIDPNAHFSVGDKEIHGREEYAHQQRRRVKESRFQVTIKDVQVNGDTVHIKYTSDQKHNGQPREDSNVMVMDATGERIESAKVTKDQ” registered a protease stability score of -0.418.
The result for “DEKQLTLLRRIFEALLRNDEDKLKDLLDPNVKVRYGDKDLHGRENVAESIVRTNQEARFHVRRVTFRDHNGQAKVKVDFDQQHNGQPRSARLDVSMQRHNGRVKSISFKVDT” reads 0.649; that for “DERASELAEKIIKALHTGNPQEVQKLVPPDVHVVYGDKNIHGRENAKKYWDQVLRNWRLNIQDFRIDADGDNVTVELHAEFNVNGQPIQARATVTVNVKNGRVKELNVQLPHEDLRRIRQ”, 0.619; that for “DEEAAKKMMETWMKAVQKGDEKTVQKVYKPNGRWVHIDEERQGVEVVVKMMQQVKKQGVEFQIRRAKVEGDRVQFVYDLRLGDKTATFTVELQAQGGRVQEVKAEVSEEAKEIVTKG”, 0.14.
In the case of “DEENKKQAERLYTALEKNNPEELKKLADPNARVEVGDTTYHGMRKFLRDLAQTLKELRVEVIEIEIDVQGNQVTAHVHVRVEKNGQPDEFVLIFHFELSNGRIKRVRVERHQ”, the protease stability score was 1.12.
In turn, “DEEAQEVVEDMLRAIDKGDEDQIRRNVDKDAKVKVGNHELHGREQIAKFLSKERNEIEQSFQYESVTVDGDKIKFQFEMSRNVNGKPMRVSAQAEADAHNGKIRHFKVNVDTDVERRIDS” registered a protease stability score of -0.165.
The sequence “DEHKIAKKLADTVMSLMKTGNFDQLAKQADPNVKIEIGDTTIHGREELVKTQKRLNDQIDHVDVRVNKVQMHGDKVNIDMDFVINVNGKNERRKLTVRAKVHNGRAIITEIRYG” came in with a protease stability score of 1.01.
As for “DDDVMRRLLKWVKNGDWDVLAENADPNVRVNIGDFRVHGREQFKEWADKLHKKVDHFHYRDVKVNGDRVRFDFIEHFNGKTIDMDMTARAHNGRITSLDVNVRSEDDKHAFKELVS”, the protease stability score was 1.1.
The result for “DEELRKLAEQLVTIFQTGNEHHVQELMDPNAKLQIGDTEFKGREEYVKEVKKRRDEMRFSIKKVKVDAHGDKIDIKIHMTMKHDGKPRDYVVTVHLRVQGDKIKSAHYQDTK” reads 0.155.
The sequence “DKEVNNMAEKFLDAFRTNDPDQVRRLADENASFRVGDKVLTGMTEAVRELHRQVKQMEVRITDVKNSVQGDQANLDIHFDVHDNGKPDTRRMVLVVNVENGRIREVEVNQDD” came in with a protease stability score of 0.4.
For “DEKTLKELADHLIRAIETGNEHQFQKMADPNVKAQYGDSKVRGREDLAEYFKTLVDRADHIQFDHWDAQGNKVTMHFVLRVNGVDVRIVVFIHVTNGKIKHVRVHVTDPQEFRRMQG”, the protease stability score was found to be 0.515.
Take “DEDLMERLKTILDAQSNGNPDELRRMFDPNAKIDIGDKEYHGMENFASNQHKRVKHIEQKYQFKSISAEGDKLDVRLRAQQVVNGTPRKYEYNLTARMSNGKVKSMEVQIPEEVLKRLEK”: the protease stability score is -0.219.
On to “DERNQRNLEKMLKAQERGNPDLLEELVDKNVKIEVGDKSVHGREELHRQQDRRRKQATLRYDDLRMKVSGNKVRVDMKFQVNHDGKPEKATADATYEFDNGKLKHVSVRVRQ”, for which the protease stability score is -0.06.
Take “DQEDKDSLEQILHTGDWVDAAKSADPNAQAEVGDKTWTGREQVEKVMKRLRDDIDHQEVKSVEIDGDKMHVDLTAHINGERMRITIEVKYSNGHLVKVVVKATDKEVEKHLKKLLD”: the protease stability score was found to be 1.54.
With “DTRANEIWQDIVQALQTGDHERAIRLADPNVHFKVGDREVHGMTQFAHKQAQRHREARIELRVHSVRDRGDHVTVHYEMVVNVDGNPVKNTVTIYIVMRNGKLRSVEVSVDPRDVKRMRS”, the protease stability score amounted to 0.108.
In the case of “DEEELKTAETNIRTGNFDDLSKQADENVNVQVGEKTIQGREEFNKVAHHLQKDVDHFEVKHVHNQGDQVNAEAVFVVDGKDLSFNMQMKMHNGRVKSVVFRATDETILRTYKEMLR”, the protease stability score was -0.152.
With “DDRLREVFEHIVELFKTGNPEELSRNVDPNARYQYGDKELHGRDHYRREVKDLIDTMRYEQEVDKVQKRGEKVRIEAEARHKENGRPNEFTFVIEFKAHNGKVKHEVQHESS”, the protease stability score is -0.15.
